B1: 22F1A9 (antibody, V domains shown)
VH: EVQLVESGGGLVKPGGSLKLSCAASGFTFSSYAMSWVRQTPEKRLEWVATISDGGSYTYYPDNVKGRFTISRDNTKNNLYLQMSHLKSEDTAMFYCARDLSPLYYRGPMDYWGQGTSVTVSS
VL: DIQMTQSPASLSASLGERVSLTCRASQDIGSSLNWLQQEPDGTIKRLIYATSSLDSGVPKRFSGSRSGSDYSLTISSLESEDFVDYYCLQYASSPFTFGSGTKLEIK
B2: 31E6H8 (antibody, V domains shown)
VH: EVKLVESGGGLVQPGGSLSLSCAASGFTFTDYYMTWVRQPPGKALEWLGFIRNKANGYTTEYSASVKGRFTISRDNSQSILSLQMNALSAEDSATYYCASLVLRGFAYWGQGTLVTVSA
VL: not shown
B3: 35B3F9 (antibody, V domains shown)
VH: EVKLVESGGGLVQPGGSLRLSCAASGFTFTDYYMSWVRQPPGKALEWLGFIRNKVSGYTTDNSASVKGRFTISRDDSQSIVYLQMNDLRAEDSATYYCARYVSLWLLGYFDVWGTGTTVTVSS
VL: DVQITQSPSYLAASPGETITINCRASKSISKYLAWYQEKPGKTNKLLIYSGSTLQSGIPSRFSGSGSGTDFTLTISSLEPEDFAMYYCQQHNEYPLTFGTGTKLELK
B4: 35G6G1 (antibody, V domains shown)
VH: EVKLVESGGGLVQPGGSLSLSCAASGFTFADYYMTWVRQPPGKALEWLGFIRNKANGFTTEYSASVKGRFTISRDNSQSILYLQMNALRAEDSATYYCARYGLRGFAYWGQGTLVTVSA
VL: DIVMTQSPSSLAMSVGQKVTLNCKSSQSLLNSSNQKNYLAWYQQKPGQSPKLLVYFASTRESGVPDRFIGSGSGTDFTLTISSVQAEDLADYFCHQHYSTPFTFGSGTKLEMK
B5: 36F7B3 (antibody, V domains shown)
VH: EVKLVESGGGLVQPGGSLSLSCAASGFTFTDYYMTWVRQPPGKALEWLCFIRNKANGYTTEYSASVKGRFTISRDNSQSILYLQVNALRAEDSATYYCATYVLRGLAYWGQGTLVTVSA
VL: not shown
B6: 38B2G5 (antibody, V domains shown)
VH: QVQLQQSGAEVAKPGASVKLSCKASGYTFTSYWMHWVKQRPGQGLEWIGYINPSNNYTKYNQKFNDKATLTADKSSSTAYMQLSSLTYEDSALYYCARVYYYGNSPAWFAYWGQGTLVTVSA
VL: QIVLSQSPAILSASPGEKVTMTCRASSSVSYMHWYQQKPGSSPKPWIYATSNLASGVPARFSGSGSGTSYSLTISRVEAEDAATYYCQQWTSNPPTFGGGTKLEIK
B7: 38D6A8 (antibody, V domains shown)
VH: EVKLVESGGGLVQPGGSLSLSCAASGFTFTDYYMSWVRQPPGKALEWLGFIRNKASGYTTEYSASVKGRFTISRDNSQNILYLQMNALRAEDGATYYCVRYISLWLLGYFDVWGTGTTVTVSS
VL: DVQITQSPSYLAASPGETITINCRASKSISKYLAWYQEKPGKTNKLLIYSGSTLQSGIPSRFSGSGSGTDFTLTISSLEPEDFAMYYCQQHNDYPLTFGAGTKLELK
B8: 48D6F4 (antibody, V domains shown)
VH: EVRLVESGGGLVQPGGSLRLSCAASGFTFTDYYMSWVRQPPGKALEWLGFIRNKPSGYTTEYSASVKGRFTFSRDNSQSILYLQMNALRAEDSATYYCARYISLWLLGYLDVWGTGTTVTVSS
VL: DVQITQSPSYLAASPGETIIINCRTSKSISKYLAWYQEKPGKTNNLLIYSGSTLQSGIPSRFSGSGSGTDFSLTISSLEPEDFAIYYCQQHNEYPLTFGAGTKLELN
B9: 54C2F11 (antibody, V domains shown)
VH: EVRLVESGGGLVQPGGSLRLSCAASGFTFTDYYMSWVRQPPGKALEWLGFIRNKPSGYTTEYSASVKGRFTISRDNSQSILYLQMNALRAEDSATYYCARYISLWLLGYLDVWGTGTTVTVSS
VL: DVQITQSPSYLAASPGETIIINCRTSKSISKYLAWYQEKPGKTNKLLIYSGSTLQSGIPSRFSGSGSGTDFTLTISSLEPEDFAMYYCQQHNEYPLTFGAGTKLELN
B10: 56C3E6 (antibody, V domains shown)
VH: EVNLVESGGGLVQPGDSLSLSCATSGFTFTDYYMSWVRQPPGKALEWLGFIRNKANGYTTEYSASVKGRFTISRDNSQSILYLQMNALRPEDSATYYCASPVLRGFAYWGRGTLVTVSA
VL: DIQMTQSPASLSASVGETVTITCRASGNIHNYLAWYQQKQGKSPQLLVYNAKTLADGVPSRFSGSGSGTQYSLKINSLQPEDFGSYYCQHFWSTPFTFGSGTKLEIK
B11: 66E8F8 (antibody, V domains shown)
VH: EVKLVESGGGLVQPGGSLSLSCAASGFTFTDYYMSWVRQPPGKALEWLCFIRNKANGYTTEYSASVKGRFTISRDNSQSILYLQVNALRAEDSATYYCATYVLRGLAYWGQGTLVTVSA
VL: not shown
B12: 68B1E2 (antibody, V domains shown)
VH: EVKLVESGGGLVQPGGSLSLSCAASGFTFTDYYMSWVRQPPGKALEWLGFIRNKASGYTTEYNASVKGRFTISRDNSQNILYLQMNALRAEDGATYYCVRYISLWLLGYFDVWGTGTTVTVSS
VL: DVQITQSPSYLAASPGETITINCRASKSISKYLAWYQEKPGKTNKLLIYSGSTLQSGIPSRFSGSGSGTDFTLTISSLEPEDFAMYYCQQHNDYPLTFGAGTKLELK
B13: 73D4G2 (antibody, V domains shown)
VH: EVRLVESGGGLVQPGGSLRLSCAASGFTFTDYYMSWVRQPPGKALEWLGFIRNKPSGYTTEYSASVKGRFTISRDNSQSILYLQMNALRAEDSATYYCARYISLWLLGYLDVWGTGTTVTVSS
VL: DVQITQSPSYLAASPGETIIINCRTSKSISKYLAWYQEKPGKTNKLLIYSGSTLQSGIPSRFSGSGSGTDFTLTISSLEPEDFAMYYCQQHNEYPLTFGAGTKLELK
B14: recombinant 68A11A1 antibody (IgG1 isotype), anti-Siglec-10 monoclonal antibody (antibody, V domains shown)
VH: EVKLVESGGGLVQPGGSLSLSCAASGFTFTDYYMSWVRQPPGKALEWLGFIRNKVSGYTTDYSSSVKGRFTFSRDNSQSIVYLHMNALRAEDSATYYCTRYVSLWLLGYFDVWGTGTTVTVSS
VL: DVQLTQSPSYLAASPGETITINCRTSKSISKYLAWYQEKPGKTNKLLIYSGSTLQSGIPSRFSGSGSGTDFTLTISSLEPEDFAMYYCQQHNEYPLTFGAGTKLELK

The binders below were run against recombinant human Siglec-10 protein (Siglec-10 antigen coated in ELISA) (Homo sapiens (Human)., UniProt Q96LC7) (assay: not given).
Chain of recombinant human Siglec-10 protein (Siglec-10 antigen coated in ELISA) (Q96LC7 17-550): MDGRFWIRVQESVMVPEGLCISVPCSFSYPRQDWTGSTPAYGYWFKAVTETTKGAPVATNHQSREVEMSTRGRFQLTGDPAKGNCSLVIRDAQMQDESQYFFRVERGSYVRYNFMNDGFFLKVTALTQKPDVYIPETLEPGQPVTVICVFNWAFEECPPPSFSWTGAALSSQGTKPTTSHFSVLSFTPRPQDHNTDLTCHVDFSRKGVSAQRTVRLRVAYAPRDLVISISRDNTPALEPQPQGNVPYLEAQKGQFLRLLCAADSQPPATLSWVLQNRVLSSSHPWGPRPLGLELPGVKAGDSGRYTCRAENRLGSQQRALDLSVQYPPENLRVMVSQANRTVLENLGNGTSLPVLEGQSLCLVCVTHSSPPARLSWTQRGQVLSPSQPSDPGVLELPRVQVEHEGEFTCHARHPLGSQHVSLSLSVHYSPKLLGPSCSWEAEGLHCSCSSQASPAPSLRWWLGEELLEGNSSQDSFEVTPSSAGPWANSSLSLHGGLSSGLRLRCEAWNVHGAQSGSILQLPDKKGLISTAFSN

Row | Binder | binding result
1 | B1 | binds
2 | B2 | binds
3 | B3 | binds
4 | B4 | binds
5 | B5 | binds
6 | B6 | binds
7 | B7 | binds
8 | B8 | binds
9 | B9 | binds
10 | B10 | binds
11 | B11 | binds
12 | B12 | binds
13 | B13 | binds

What follows are binders tested against Siglec-5 antigen (recombinant Siglec-5 protein coated in ELISA) (Homo sapiens (assumed), UniProt O15389) (assay: ELISA).
Chain of Siglec-5 antigen (recombinant Siglec-5 protein coated in ELISA) (O15389 17-551): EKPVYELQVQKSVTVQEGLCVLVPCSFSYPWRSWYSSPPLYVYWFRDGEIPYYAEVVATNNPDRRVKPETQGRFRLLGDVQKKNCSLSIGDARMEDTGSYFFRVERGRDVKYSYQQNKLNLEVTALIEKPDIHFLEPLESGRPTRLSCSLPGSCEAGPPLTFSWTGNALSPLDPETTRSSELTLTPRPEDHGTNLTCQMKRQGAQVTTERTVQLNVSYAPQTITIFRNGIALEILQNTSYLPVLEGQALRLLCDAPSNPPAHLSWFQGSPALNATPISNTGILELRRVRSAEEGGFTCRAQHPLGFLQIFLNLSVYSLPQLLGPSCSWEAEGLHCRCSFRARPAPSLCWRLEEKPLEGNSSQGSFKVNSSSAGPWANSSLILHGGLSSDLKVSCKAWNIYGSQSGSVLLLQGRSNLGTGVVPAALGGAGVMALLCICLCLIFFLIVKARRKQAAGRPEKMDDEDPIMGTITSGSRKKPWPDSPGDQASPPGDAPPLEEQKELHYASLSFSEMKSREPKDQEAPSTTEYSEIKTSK

Row | Binder | binding result
14 | B14 | no binding
